The nature of this series: Control: unseeded Aβ1–40 solution checked for fibrils by TEM or AFM. The note with it: unseeded 50 µM Aβ1–40 solution, 30 min incubation. Format: physicochemical.

Turning to “Aβ1–40: 40-residue β-amyloid peptide, made by solid-phase synthesis; also literature fibrils of unspecified polymorph”, the “fibril formation in unseeded solution” value was “no fibrils were observed”.

The values are drawn from article PMC3686096 (Journal of the American Chemical Society, 2013).
